One test addresses T1, rat Gαo (Rattus norvegicus, UniProt P59215).
T1 construct: fusion proteins containing C-terminal regions of Gα proteins in Y2H assays; expressed in transfected cells; host or cells: yeast strain CY770, plasmid pACT2
Briefly: Yeast 2-hybrid (Y2H) bioassay for BBP interaction with Gαo. The note with it: BBP intracellular loop as Gal4 DNA-binding domain fusion; C-terminal region of Gα as Gal4 activation domain fusion; compared to vector. The source says:
(§1) Yeast 2-hybrid assays. Y2H expression plasmids were constructed in the vectors pAS2 and pACT2 (Wade Harper et al., 1993). Strain CY770 (Ozenberger and Young, 1995) served as the host for Y2H assays. Sequences encoding the BBPI intracellular loop were amplified using the oligonucleotides 5′-CCTTCC ATGGAAGTGGCAGTCGCATTGTCT [SEQ ID NO:24] plus 5′-AACACTCGAG TCAAAACCCTACAGTGCAAAAC [SEQ ID NO:25]. This product, containing BBP1 codons 185 to 217, was digested with NcoI+XhoI and cloned into pAS2 cleaved with NcoI+SaII to generate pOZ339. Sequences encoding the BBP2 intracellular loop were amplified using the oligonucleotides 5′-CCATG GCCACTTTACTCTACTCCTTCTT [SEQ ID NO:26] plus 5′-CTCGAG TCA AAT CCC MG TCC TCC MG CG [SEQ ID NO:27]. […]
(§2) The various combinations of plasmids were transformed into strain CY770 by standard protocols. […] Cells were concentrated by centrifugation, counted and 10-fold serial dilutions made from 10^4 to 10^8 cells per ml in sterile water. […]
(§3) BBP1 contains a structural motif known to be a Gα protein activating sequence in the related G protein-coupled receptors. The intracellular sequences of each BBP were expressed as fusion proteins and assayed. for physical interactions with fusion proteins containing C-terminal regions of Gα proteins in Y2H assays.

In test [1] the test system is Human Ntera2 (Nt2) stem cells. Briefly: Staurosporine-induced nuclear condensation (apoptosis) in transfected Nt2 stem cells. It counts as cell-based. An excerpt:
Mammalian expression plasmids. BBP cDNAs were modified by polymerase chain reaction (PCR) for expression from the vector pcDNA3.1 (Invitrogen Corp., Carlsbad, Calif.). BBP1 cDNA was amplified from pBBP1-fl (ATCC #98617); from the third potential translation start site to the translation stop codon, adding a 5′ EcoRI and a 3′ SaII site for cloning. The BBP1 cDNA contains three potential translation starts (codons 1, 30, and 63). The third start site was chosen for the described experiments because the first two potential initiating codons lack appropriate sequence context for efficient translation initiation (see Kozak, 1996), and based on similarities of the protein derived from the third start site with a putative BBP1 orthologue from Drosophila melanogaster (Genbank accession M941984). FIG. 1 depicts this minimal BBP1 translation product to optimize the alignment with the other BBP subtypes. The PCR primers were 5′-TGGTGAATTC GAAAGTGTCG GTCTCAACG ATG G [SEQ ID NO:36] (+strand) and 5′-CTTCGTCGAC TTATGGATATAATTGCGTTTTTC [SEQ ID NO:37] (−strand). The PCR product was digested with EcoRI+SaII and cloned into pcDNA3.1/EcoRI−XhoI to create pOZ363. BBP2 and BBP3 expression plasmids were similarily engineered. BBP2 was amplified from pOZ359 (ATCC #98851; using primers 5′-TTCCGAATTC AAGATGGTGCTAGGTGGTTGCCC [SEQ ID NO:38] (+strand) plus 5′-TTCCCTCGAG TTAGTAAACAGTGCACCAGTTGC [SEQ ID NO:39] (−strand). The PCR product was digested with EcoRI+XhoI and cloned into pcDNA3.1/EcoRI−XhoI to create pFL1 1. BBP3 was amplified from pOZ350 (ATCC #98712 using primers 5′-TTTTGAATTC GCAAG ATG GCG GGA GGG GTG CGC [SEQ ID NO:40] (+strand) plus 5′-TTGGCTCGAG CTAAATGTACAAAGAGCCATCTG [SEQ ID NO:41] (−strand). The PCR product was digested with EcoRI+XhoI and cloned into pcDNA3.1/EcoRI−XhoI to create pFL12. Mutation of the arginine codon within the ‘DRF’ motif of each BBP cDNA was performed using the QuickChange system (Stratagene Co., La Jolla, Calif.). Oligonucleotides were synthesized and purified by Genosys Biotechnologies, Inc. (The Woodlands, Tex.). The R138 codon of BBP1 in pOZ363 was changed to an alanine codon using the oligonucleotide 5′-GG TTGGGAGCAGATGCATTTTACCTTGGATACCC [SEQ ID NO: 42] and its exact reverse complement. The changed nucleotides are underlined. The R138 position of BBP1 in pOZ363 was changed to E using the oligonucleotide 5′-GG TTGGGAGCAGATGAATTTTACCTTGGATACCC [SEQ ID NO:43] and its exact reverse complement. The R167 position of BBP2 in pFL11 was changed to E using the oligonucleotide 5′-CTGGGATGTTTTGGTGTGGAT GM TTC TGT TTG GGA CAC AC [SEQ ID NO:44] and its exact reverse complement. […]

Another test deals with T2, rat Gαs (Rattus norvegicus, UniProt P63095).
T2 construct: fusion proteins containing C-terminal regions of Gα proteins in Y2H assays; expressed in transfected cells; host or cells: yeast strain CY770, plasmid pACT2
T2 sequence (P63095 235-394 limits assumed): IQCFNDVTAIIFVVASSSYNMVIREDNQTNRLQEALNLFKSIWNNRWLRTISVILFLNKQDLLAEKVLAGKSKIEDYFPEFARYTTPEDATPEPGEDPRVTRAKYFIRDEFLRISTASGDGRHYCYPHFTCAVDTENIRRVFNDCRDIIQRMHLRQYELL
Briefly: Yeast 2-hybrid (Y2H) bioassay for BBP interaction with Gαs. The note with it: BBP intracellular loop as Gal4 DNA-binding domain fusion; C-terminal region of Gα as Gal4 activation domain fusion; compared to vector.
Description: as §1, §2, §3

The next test addresses T3, rat Gαi2 (Rattus norvegicus, UniProt P04897).
T3 construct: fusion proteins containing C-terminal regions of Gα proteins in Y2H assays; expressed in transfected cells; host or cells: yeast strain CY770, plasmid pACT2
Briefly: Yeast 2-hybrid (Y2H) bioassay for BBP interaction with Gαi2. As to conditions: BBP intracellular loop as Gal4 DNA-binding domain fusion; C-terminal region of Gα as Gal4 activation domain fusion; compared to vector.
Description: as §1, §2, §3

The mark [2] stands for this setting: recombinant expression in Nt2 stem cells, 100 nM staurosporine for 3 hrs.

T1 sequence (P59215 213-354 limits assumed): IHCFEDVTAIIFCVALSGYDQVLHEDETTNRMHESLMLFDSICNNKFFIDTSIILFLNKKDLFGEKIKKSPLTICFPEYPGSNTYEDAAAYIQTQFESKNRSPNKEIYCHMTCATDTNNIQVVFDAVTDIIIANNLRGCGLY
T3 sequence (P04897 213-355 limits assumed): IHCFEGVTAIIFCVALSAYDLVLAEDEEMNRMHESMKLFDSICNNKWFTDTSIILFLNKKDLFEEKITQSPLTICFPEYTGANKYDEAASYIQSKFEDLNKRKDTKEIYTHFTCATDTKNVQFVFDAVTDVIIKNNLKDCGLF

B1: BBP3: 221 amino acid BBP family protein (short form), SEQ ID NO:6; expressed from pFL12 (protein, listed as Homo sapiens)
chain: MAGGVRPLRGLRALCRVLLFLSQFCILSGGESTEIPPYVMKCPSNGLCSRLPADCIDCTTNFSCTYGKPVTFDCAVKPSVTCVDQDFKSQKNFIINMTCRFCWQLPETDYECTNSTSCMTVSCPRQRYPANCTVRDHVHCLGNRTFPKMLYCNWTGGYKWSTALALSITLGGFGADRFYLGQWREGLGKLFSFGGLGIWTLIDVLLIGVGYVGPADGSLYI
As for B1, the “physical interaction with Gαo (Y2H growth response)” value with rat Gαo is “none”. In addition, in test [1] (setting [2]), the “suppression of staurosporine-induced nuclear condensation (antiapoptotic activity), in words” value was “suppressed the induction of nuclear condensation to the same levels as BBP1”. The “physical interaction with Gαs (Y2H growth response)” value with rat Gαs is “strong response”. Besides, the “physical interaction with Gαi (Y2H growth response)” value with rat Gαi2 is “exhibited interaction”.

B2: BBP1: novel BAP binding protein, SEQ ID NO:2; two-transmembrane protein with 'DRF' motif; expressed from pOZ363 (protein, listed as Homo sapiens)
chain: MHILKGSPNVIPRAHGQKNTRRDGTGLYPMRGPFKNLALLPFSLPLLGGGGSGSGEKVSVSKMAAAWPSGPSAPEAVTARLVGVLWFVSVTTGPWGAVATSAGGEESLKCEDLKVGQYICKDPKINDATQEPVNCTNYTAHVSCFPAPNITCKDSSGNETHFTGNEVGFFKPISCRNVNGYSYKVAVALSLFLGWLGADRFYLGYPALGLLKFCTVGFCGIGSLIDFILISMQIVGPSDGSSYIIDYYGTRLTRLSITNETFRKTQLYP
In the case of B2, the “physical interaction with Gαo (Y2H growth response)” value in the test with rat Gαo is listed as “interacted with all three Gα proteins”. Moreover, the “cell death induced by staurosporine” value in test [1] (Nt2 transfectants, 24 hr treatment with staurosporine (data not shown)) is reported as “blocked cell death”. Also, the “apoptosis (percentage of condensed nuclei among EGFP+ transfectants)” value in test [1] (recombinant expression in Nt2 stem cells, 100 nM staurosporine for 3 hrs, controls 45%) was determined as 13.5%. Further, the “physical interaction with Gαs (Y2H growth response)” value with rat Gαs is reported as “interacted with all three Gα proteins”. The “physical interaction with Gαi (Y2H growth response)” value in the test with rat Gαi2 was “interacted with all three Gα proteins”.

B3: 5HT-R: 7-tm domain G protein-coupled serotonin receptor expressed as control in the apoptosis assay (protein, UniProt P08908 1-422, looked up)
5-hydroxytryptamine receptor …: MDVLSPGQGNNTTSPPAPFETGGNTTGISDVTVSYQVITSLLLGTLIFCAVLGNACVVAAIALERSLQNVANYLIGSLAVTDLMVSVLVLPMAALYQVLNKWTLGQVTCDLFIALDVLCCTSSILHLCAIALDRYWAITDPIDYVNKRTPRRAAALISLTWLIGFLISIPPMLGWRTPEDRSDPDACTISKDHGYTIYSTFGAFYIPLLLMLVLYGRIFRAARFRIRKTVKKVEKTGADTRHGASPAPQPKKSVNGESGSRNWRLGVESKAGGALCANGAVRQGDDGAALEVIEVHRVGNSKEHLPLPSEAGPTPCAPASFERKNERNAEAKRKMALARERKTVKTLGIIMGTFILCWLPFFIVALVLPFCESSCHMPTLLGAIINWLGYSNSLLNPVIYAYFNKDFQNAFKKIIKCKFCRQ
Turning to B3, the “suppression of staurosporine-induced nuclear condensation (antiapoptotic activity), in words” value in test [1] (setting [2]) is on record as “had no effect”.
